In doi:10.1101/2021.07.05.451181 (bioRxiv, 2021):

Target: the molecule itself
Assay: single-molecule photobleaching step counting

B1: GFP-TAX-4 (cyclic nucleotide-gated TAX-4 ion channel with EGFP fused to the cytosolic N-terminus) (natural protein, C. elegans, UniProt Q03611 1-733, looked up)
chain: MSTAEPAPDPTNPSTSGLAPTTNGIGSPPPTASAATKFSILTKFLRRKNQVHTTTAQQNEFMQKYMPNGNSNAVQPAATGGQPASSDGGSAIEVPPPKESYAVRIRKYLANYTQDPSTDNFYYWTCVVTVAYIYNLLFVIARQVFNDLIGPSSQSLCRFYNGTLNSTTQVECTYNMLTNMKEMPTYSQYPDLGWSKYWHFRMLWVFFDLLMDCVYLIDTFLNYRMGYMDQGLVVREAEKVTKAYWQSKQYRIDGISLIPLDYILGWPIPYINWRGLPILRLNRLIRYKRVRNCLERTETRSSMPNAFRVVVVVWYIVIIIHWNACLYFWISEWIGLGTDAWVYGHLNKQSLPDDITDTLLRRYVYSFYWSTLILTTIGEVPSPVRNIEYAFVTLDLMCGVLIFATIVGNVGSMISNMSAARTEFQNKMDGIKQYMELRKVSKQLEIRVIKWFDYLWTNKQSLSDQQVLKVLPDKLQAEIAMQVHFETLRKVRIFQDCEAGLLAELVLKLQLQVFSPGDFICKKGDIGREMYIVKRGRLQVVDDDGKKVFVTLQEGSVFGELSILNIAGSKNGNRRTANVRSVGYTDLFVLSKTDLWNALREYPDARKLLLAKGREILKKDNLLDENAPEEQKTVEEIAEHLNNAVKVLQTRMARLIVEHSSTEGKLMKRIEMLEKHLSRYKALARRQKTMHGVSIDGGDISTDGVDERVRPPRLRQTKTIDLPTGTESESLLK
stoichiometry N: 4
